B1: mouse anti-HuBChE monoclonal antibody 11D8 (antibody, V domains shown)
VH: QVQLQQSGAELARPGASVKLSCKASGYTFTSQWLQWVKQRPGQGLEWIGAIYPGDGDTRYTQKFKGKATLTADKSSSTAYMQLTNLAPEDSAVYYCARSSMDYWGQGTSVTVSS
VL: DILLTQSPAILSVSPGERVRLSCRASQSCGTSIYWYQQRTNGSPRLLIMYASEPFSGIPSRFSGSGSGTDFTLSINSVESEDIADYYCQQSNSWPWTFGGGTRLEIK
B2: mouse anti-HuBChE monoclonal antibody B2 12-1 (antibody, V domains shown)
VH: EVQLQQSGPELVKPGASVKISCKASGYTFTDYSMHWVKLSHGKSLEWIGYIYPYNDDTDYNQKFKTKATLTVDSSSSITYLELRSLTSEDSAVYYCARSDGYSYYFDYWGQGTTLTVSS
VL: DIVMTQSPATLSVTPGDRVSLSCRASQSISDYLHWYQQKSHESPRLLIKYASQSISGIPSRFSGGGSGSDFTLSINSVEPEDVGVYYCQNGHRFPLTFGAGTKLELK

Columns and labels:
[1] = molecular target: T1, Human butyrylcholinesterase (Homo sapiens, UniProt P06276); assay: SPR
T1 sequence (P06276 29-602): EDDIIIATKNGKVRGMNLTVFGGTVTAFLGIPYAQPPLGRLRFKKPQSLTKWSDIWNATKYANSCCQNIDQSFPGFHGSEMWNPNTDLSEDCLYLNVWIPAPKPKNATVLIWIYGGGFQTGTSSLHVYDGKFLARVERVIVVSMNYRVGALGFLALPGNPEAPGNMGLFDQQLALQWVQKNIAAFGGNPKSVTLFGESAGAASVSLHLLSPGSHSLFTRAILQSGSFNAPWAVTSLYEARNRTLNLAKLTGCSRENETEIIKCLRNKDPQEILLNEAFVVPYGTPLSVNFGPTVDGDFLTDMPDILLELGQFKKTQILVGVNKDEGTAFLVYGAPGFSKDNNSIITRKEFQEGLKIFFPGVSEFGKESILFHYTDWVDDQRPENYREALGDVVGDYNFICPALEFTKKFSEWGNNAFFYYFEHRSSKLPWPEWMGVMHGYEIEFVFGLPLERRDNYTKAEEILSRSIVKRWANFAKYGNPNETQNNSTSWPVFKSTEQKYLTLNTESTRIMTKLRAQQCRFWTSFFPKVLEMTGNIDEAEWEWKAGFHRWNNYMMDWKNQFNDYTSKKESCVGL

[2] = molecular target: T1, Human butyrylcholinesterase; assay: ELISA
human albumin = human albumin (Homo sapiens, UniProt P02768); assay: affinity purification with mass spectrometry
Chain of human albumin (P02768 25-609): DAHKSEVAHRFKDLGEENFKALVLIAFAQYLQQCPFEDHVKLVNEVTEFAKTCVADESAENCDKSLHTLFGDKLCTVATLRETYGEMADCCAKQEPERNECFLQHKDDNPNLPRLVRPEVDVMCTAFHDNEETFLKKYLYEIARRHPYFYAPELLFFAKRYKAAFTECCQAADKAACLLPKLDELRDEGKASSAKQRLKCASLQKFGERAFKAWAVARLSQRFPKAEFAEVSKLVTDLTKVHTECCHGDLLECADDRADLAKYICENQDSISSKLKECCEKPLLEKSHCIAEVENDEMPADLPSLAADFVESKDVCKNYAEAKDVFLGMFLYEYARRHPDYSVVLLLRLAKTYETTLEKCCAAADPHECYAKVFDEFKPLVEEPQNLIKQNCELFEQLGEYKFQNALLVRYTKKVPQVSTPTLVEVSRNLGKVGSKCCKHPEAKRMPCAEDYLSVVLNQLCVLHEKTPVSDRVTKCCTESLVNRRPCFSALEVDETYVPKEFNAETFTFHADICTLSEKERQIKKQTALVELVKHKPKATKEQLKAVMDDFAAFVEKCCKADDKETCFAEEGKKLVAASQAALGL

[3] = molecular target: T1, Human butyrylcholinesterase; assay: BLI

Binder | Kd [1] | Kd [2] | binding result (human albumin) | kon [3]
B1 | 0.9 nM | 0.26 nM | binds | –
B2 | 0.14 nM | 1.41 nM | – | 800000 to 1.2e+06 M⁻¹ s⁻¹
